According to the RNAGym collection of RNA variant scans (doi:10.1093/molbev/msab373):

B1: Azoarcus group I ribozyme (parent)
chain: GUGCCUUGCGCCGGGAAACCACGCAAGGGAUGGUGUCAAAUUCGGCGAAACCUAAGCGCCCGCCCGGGCGUAUGGCAACGCCGAGCCAAGCUUCGGCGCCUGCGCCGAUGAAGGUGUAGAGACUAGACGGCACCCACCUAAGGCAAACGCUAUGGUGAAGGCAUAGUCCAGGGAGUGGCGAAAGUCACACAAACCGG

Variants of: B1
Assay: reverse-splicing fitness (ratio to wild type); higher = more active; in vitro selection; Mg2+ level not given
Procedure, shortened: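 An in vitro group I ribozyme library with randomized positions was T7-transcribed and gel-purified. In triplicate, 10 pmol RNA in EPPS pH 7.5 was reacted with 50 pmoles of a 30-nt RNA substrate for 1 h at 37 °C across several added MgCl2 levels (1–48 mM), then stopped with EDTA. Products were reverse transcribed from a substrate-complementary primer, PCR-amplified and sequenced (HiSeq 4000). Fitness is a variant's read proportion after selection over that before, normalised to wild type.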

Q: For C82U A111U A120G A145G C169U U176G, which reverse-splicing fitness is on record?
A: 0.00458

Q: For C82U A111U A120G A145G C169U U176A, which reverse-splicing fitness is on record?
A: 0.0196

Q: Which reverse-splicing fitness does the source give for C82U A111U A120G A145G C169U U176C here?
A: 0.0159

Q: Which reverse-splicing fitness does the source give for C82U A111U A120G A145C C169A U176C here?
A: 0.00603

Q: With C82U A111U A120G A145C C169A U176A as the variant, how does the reverse-splicing fitness read?
A: 0.00993

Q: Which reverse-splicing fitness does the source give for C82U A111U A120G A145C C169A U176G here?
A: 0.00391

Q: With C82U A111U A120C C150A C169U U176G as the variant, how does the reverse-splicing fitness read?
A: 0.00688

Q: Which reverse-splicing fitness does the source give for C82U A111U A120C C150A C169U U176C here?
A: 0.0203

Q: Which reverse-splicing fitness does the source give for C82U A111U A120C C150A C169U U176A here?
A: 0.0229

Q: Which reverse-splicing fitness does the source give for C82U A111U A120C C150G C169U U176A here?
A: 0.0091

Q: For C82U A111U A120C C150G C169U U176G, which reverse-splicing fitness is on record?
A: 0.00538

Q: Which reverse-splicing fitness does the source give for C82U A111U A120C C150G C169U U176C here?
A: 0.0149

Q: Which reverse-splicing fitness does the source give for C82U A111U A120C A145G C150U C169A here?
A: 0.00982

Q: For C82U A111U A120C A145G C150U C169U, which reverse-splicing fitness is on record?
A: 0.0108

Q: Which reverse-splicing fitness does the source give for C82U A111U A120C A145G C150U C169G here?
A: 0.00811

Q: With C82U A111U A120G A145G C150U as the variant, how does the reverse-splicing fitness read?
A: 0.0119

Q: With C82U A111U A120G A145G C150A as the variant, how does the reverse-splicing fitness read?
A: 0.00801

Q: Which reverse-splicing fitness does the source give for C82U A111U A120G A145G C150G here?
A: 0.00732

Q: For C82U A111U A120G A145U C150A U176A, which reverse-splicing fitness is on record?
A: 0.0096

Q: Which reverse-splicing fitness does the source give for C82U A111U A120G A145U C150A U176C here?
A: 0.0112

Q: With C82U A111U A120G A145U C150A U176G as the variant, how does the reverse-splicing fitness read?
A: 0.00425

Q: With C82U A111U A120G A145U C150A C169G as the variant, how does the reverse-splicing fitness read?
A: 0.00728

Q: For C82U A111U A120G A145U C150A C169A, which reverse-splicing fitness is on record?
A: 0.00884

Q: Which reverse-splicing fitness does the source give for C82U A111U A120G A145U C150A C169U here?
A: 0.0062

Q: With C82U A111U A120G A145U C150A C169A U176G as the variant, how does the reverse-splicing fitness read?
A: 0.00508

Q: With C82U A111U A120G A145U C150A C169A U176C as the variant, how does the reverse-splicing fitness read?
A: 0.0092

Q: For C82U A111U A120G A145U C150A C169A U176A, which reverse-splicing fitness is on record?
A: 0.0137

Q: For C82U A111U A120C A145G C150G U176A, which reverse-splicing fitness is on record?
A: 0.00644

Q: With C82U A111U A120C A145G C150G U176G as the variant, how does the reverse-splicing fitness read?
A: 0.00575

Q: With C82U A111U A120C A145G C150G U176C as the variant, how does the reverse-splicing fitness read?
A: 0.0109

Q: Which reverse-splicing fitness does the source give for C82U A111U A120G A145C C150G U176G here?
A: 0.0024

Q: With C82U A111U A120G A145C C150G U176C as the variant, how does the reverse-splicing fitness read?
A: 0.00719

Q: Which reverse-splicing fitness does the source give for C82U A111U A120G A145C C150G U176A here?
A: 0.00493

Q: Which reverse-splicing fitness does the source give for C82U A111U A120G A145G C169G U176G here?
A: 0.00377

Q: Which reverse-splicing fitness does the source give for C82U A111U A120G A145G C169G U176C here?
A: 0.027

Q: With C82U A111U A120G A145G C169G U176A as the variant, how does the reverse-splicing fitness read?
A: 0.0214

Q: For C82U A111U A120C A145U C150U U176A, which reverse-splicing fitness is on record?
A: 0.0114

Q: Which reverse-splicing fitness does the source give for C82U A111U A120C A145U C150U U176G here?
A: 0.0051

Q: With C82U A111U A120C A145U C150U U176C as the variant, how does the reverse-splicing fitness read?
A: 0.0147

Q: Which reverse-splicing fitness does the source give for C82U A111U A120C A145G C150U C169G U176A here?
A: 0.0128

Q: With C82U A111U A120C A145G C150U C169G U176C as the variant, how does the reverse-splicing fitness read?
A: 0.016

Q: Which reverse-splicing fitness does the source give for C82U A111U A120C A145G C150U C169G U176G here?
A: 0.00514
